The values below come from the RNAGym collection of RNA variant scans (doi:10.7554/elife.90254).

To fix the notation:
B1: LINE1-mini (parent)
chain: GGCAGAGCUCAACACAGCGUGGCAAAGUGGCUGUGGCUAGACUGCC

The data set covers variants of B1. In words: self-cleavage, relative activity (ratio to wild type); higher = more cleavage; in vitro, sequencing; the parent is a self-cleaving ribozyme.
Regarding C13U C31G, the self-cleavage is 0.08. In the case of C13U C31A, the self-cleavage is 0.05. In the case of C13U C31U, the self-cleavage worked out at 0.12. On to A14G C23G, for which the self-cleavage was determined as 0.45. Regarding A14G C23A, the self-cleavage came to 0.53. Regarding A14G C23U, the self-cleavage came out at 0.85.

In the case of A14G A41U, the self-cleavage was determined as 0.77. A14G A41G: the self-cleavage was found to be 0.16.

For A14G A41C, the self-cleavage stood at 0.05. As for C13G U43C, the self-cleavage is 0.02. For C13G U43G, the self-cleavage was 0.66. As for C13G U43A, the self-cleavage is 0.11. Next, A14C C15G: 0.02; A14C C15U: 0.07; A14C C15A: 0.08. Under A14C stands 0.12; under A14G, 0.58.

As for A14G C37U, the self-cleavage was 0.19. In the case of A14G C37A, the self-cleavage was determined as 0.07.

As to A14G C37G, the self-cleavage is 0.04. Next, C13G C18U: 0.09. Turning to C13G C18A, the self-cleavage was 0.09.

C13G C18G: the self-cleavage worked out at 0.07. On to A14C C45G, for which the self-cleavage amounted to 0.11. Take A14C C45A: the self-cleavage was determined as 0.08. Next, A14C C45U: 0.08; C13G U38C: 0.41; C13G U38A: 0.05. Next, C13G U38G: 0.01. Under A14G A16U stands 0.06.

A14G A16C: the self-cleavage stood at 0.08. Consider A14G A16G, for which the self-cleavage is 0.1.

As to C13G G22C, the self-cleavage was determined as 0.05. Turning to C13G G22A, the self-cleavage was 0.21. With C13G G22U, the self-cleavage was 0.18. With A14C U34A, the self-cleavage stood at 0.07. As for A14C U34C, the self-cleavage was 0.07.

For the variant A14C U34G, the self-cleavage was found to be 0.26. For the variant C13G C37A, the self-cleavage was 0.13. C13G C37U: the self-cleavage is 0.37. Turning to C13G C37G, the self-cleavage came out at 0.04. As to C13G G17A, the self-cleavage came out at 0.06. Under C13G G17U stands 0.06; under C13G G17C, 0.03. In the case of A14C C18A, the self-cleavage came out at 0.05. In the case of A14C C18U, the self-cleavage came to 0.07. As to A14C C18G, the self-cleavage was 0.05. As for C13U U43A, the self-cleavage was 0.1.

On to C13U U43C, for which the self-cleavage came out at 0.1.

Turning to C13U U43G, the self-cleavage was 2.25. For the variant C13G A26C, the self-cleavage was 0.27. Turning to C13G A26G, the self-cleavage was found to be 0.08.

Turning to C13G A26U, the self-cleavage came out at 0.19. In the case of C13G A39U, the self-cleavage amounted to 0.05.

On to C13G A39G, for which the self-cleavage came to 0.09.

With C13G A39C, the self-cleavage worked out at 0.16. Consider A14C U32A, for which the self-cleavage was found to be 0.07. As for A14C U32C, the self-cleavage amounted to 0.08. A14C U32G: the self-cleavage is 0.07. With A14C U20A, the self-cleavage amounted to 0.08. A14C U20C: the self-cleavage was 0.08. Take A14C U20G: the self-cleavage came to 0.1. Consider C13U A24U, for which the self-cleavage came to 0.16. As for C13U A24G, the self-cleavage stood at 0.13. For the variant C13U A24C, the self-cleavage is 0.15. Under A14C C31A stands 0.07; under A14C C31G, 0.03. Take A14C C31U: the self-cleavage amounted to 0.02. Consider A14C C23U, for which the self-cleavage is 0.12.

On to A14C C23G, for which the self-cleavage was 0.11. On to A14C C23A, for which the self-cleavage stood at 0.21. For A14C U28C, the self-cleavage stood at 0.07. Regarding A14C U28A, the self-cleavage turned out to be 0.03. For the variant A14C U28G, the self-cleavage amounted to 0.07. On to C13G A25C, for which the self-cleavage was found to be 0.18. Under C13G A25G stands 0.11. As to C13G A25U, the self-cleavage amounted to 0.44. In the case of C13G G19C, the self-cleavage stood at 0.06. For C13G G19U, the self-cleavage was 0.11. Turning to C13G G19A, the self-cleavage is 0.2. Consider A14G A39C, for which the self-cleavage stood at 0.39. Take A14G A39G: the self-cleavage was determined as 0.1. Take A14G A39U: the self-cleavage came out at 0.37. Regarding C13G C42U, the self-cleavage was 0.12. Consider C13G C42G, for which the self-cleavage stood at 0.09. Under C13G C42A stands 0.07. For the variant C13U G27U, the self-cleavage stood at 0.17. Regarding C13U G27A, the self-cleavage is 0.17. C13U G27C: the self-cleavage came out at 0.06. Turning to A14C G17A, the self-cleavage was found to be 0.08. With A14C G17C, the self-cleavage amounted to 0.04. Take A14C G17U: the self-cleavage was 0.28. In the case of C13U G22A, the self-cleavage was found to be 0.13. Under C13U G22U stands 0.32; under C13U G22C, 0.1; under C13U U28A, 0.49.

Turning to C13U U28G, the self-cleavage is 0.08.

Take C13U U28C: the self-cleavage was 0.28. C13G C46A: the self-cleavage is 0.28. Next, C13G C46U: 0.46. C13G C46G: the self-cleavage is 0.19. Next, C13G C15U: 0.15.

For the variant C13G C15G, the self-cleavage came out at 0.09. With C13G C15A, the self-cleavage came to 0.1. Next, A14C A24U: 0.07; A14C A24C: 0.11. Under A14C A24G stands 0.07; under C13U A41C, 0.06. Regarding C13U A41U, the self-cleavage came to 0.15.

Regarding C13U A41G, the self-cleavage was 0.06. Next, C13U C42U: 0.09; C13U C42G: 0.08; C13U C42A: 0.09. Next, C13G U28G: 0.35; C13G U28C: 0.36.

Take C13G U28A: the self-cleavage was 0.28. Next, A14G A25C: 0.18; A14G A25G: 0.32. Under A14G A25U stands 0.53. Turning to A14C G44A, the self-cleavage came to 0.07.

Turning to A14C G44U, the self-cleavage is 0.07. For the variant A14C G44C, the self-cleavage was found to be 0.13. Next, A14C G40U: 0.07; A14C G40A: 0.09. Turning to A14C G40C, the self-cleavage was found to be 0.04. Turning to C13G A41U, the self-cleavage amounted to 0.17.

Consider C13G A41C, for which the self-cleavage was found to be 0.04. Next, C13G A41G: 0.09.

With C13G G36U, the self-cleavage worked out at 0.1. Under C13G G36C stands 0.08; under C13G G36A, 0.29. Under C13U C23A stands 0.26. With C13U C23G, the self-cleavage was 0.06. For C13U C23U, the self-cleavage turned out to be 0.22. As for C13U A39U, the self-cleavage worked out at 0.08.

Regarding C13U A39G, the self-cleavage is 0.11.

With C13U A39C, the self-cleavage was 0.13. For the variant C13U, the self-cleavage worked out at 0.17. Under A14C A39G stands 0.04; under A14C A39C, 0.04.

A14C A39U: the self-cleavage stood at 0.07. On to C13U G30U, for which the self-cleavage was 0.15.

With C13U G30A, the self-cleavage is 0.15. For C13U G30C, the self-cleavage came to 0.09. With C13G G44U, the self-cleavage came to 0.06.

Take C13G G44C: the self-cleavage stood at 0.05. Consider C13G G44A, for which the self-cleavage stood at 0.12. Consider A14G C42U, for which the self-cleavage is 0.21. In the case of A14G C42G, the self-cleavage was 0.04.

Consider A14G C42A, for which the self-cleavage stood at 0.08.

Take A14C G21A: the self-cleavage was determined as 0.17. With A14C G21C, the self-cleavage was found to be 0.05. For the variant A14C G21U, the self-cleavage worked out at 0.07. Consider A14C U43A, for which the self-cleavage was determined as 0.2. As to A14C U43C, the self-cleavage stood at 0.04. As to A14C U43G, the self-cleavage worked out at 0.01.

As to A14G C18U, the self-cleavage amounted to 0.42.

Take A14G C18A: the self-cleavage came to 0.2.

For the variant A14G C18G, the self-cleavage was 0.21. In the case of A14C G33A, the self-cleavage turned out to be 0.06. Next, A14C G33C: 0.03; A14C G33U: 0.05. With C13G U32G, the self-cleavage is 0.05. As to C13G U32A, the self-cleavage was 0.09.

For C13G U32C, the self-cleavage amounted to 0.07. Under C13U A25U stands 0.29. On to C13U A25G, for which the self-cleavage turned out to be 0.07.
